In patent publication US20020012949A1, “Assay systems for leptin-enhancing agents” (priority 1997, published 2002):

Target: T1, OB-R (Homo sapiens, UniProt P48357)
T1 construct: The cytoplasmic domain and full-length human OB-R was cloned by PCR; expressed in transfected cells; host or cells: COS-7
T1 sequence (P48357 22-1165): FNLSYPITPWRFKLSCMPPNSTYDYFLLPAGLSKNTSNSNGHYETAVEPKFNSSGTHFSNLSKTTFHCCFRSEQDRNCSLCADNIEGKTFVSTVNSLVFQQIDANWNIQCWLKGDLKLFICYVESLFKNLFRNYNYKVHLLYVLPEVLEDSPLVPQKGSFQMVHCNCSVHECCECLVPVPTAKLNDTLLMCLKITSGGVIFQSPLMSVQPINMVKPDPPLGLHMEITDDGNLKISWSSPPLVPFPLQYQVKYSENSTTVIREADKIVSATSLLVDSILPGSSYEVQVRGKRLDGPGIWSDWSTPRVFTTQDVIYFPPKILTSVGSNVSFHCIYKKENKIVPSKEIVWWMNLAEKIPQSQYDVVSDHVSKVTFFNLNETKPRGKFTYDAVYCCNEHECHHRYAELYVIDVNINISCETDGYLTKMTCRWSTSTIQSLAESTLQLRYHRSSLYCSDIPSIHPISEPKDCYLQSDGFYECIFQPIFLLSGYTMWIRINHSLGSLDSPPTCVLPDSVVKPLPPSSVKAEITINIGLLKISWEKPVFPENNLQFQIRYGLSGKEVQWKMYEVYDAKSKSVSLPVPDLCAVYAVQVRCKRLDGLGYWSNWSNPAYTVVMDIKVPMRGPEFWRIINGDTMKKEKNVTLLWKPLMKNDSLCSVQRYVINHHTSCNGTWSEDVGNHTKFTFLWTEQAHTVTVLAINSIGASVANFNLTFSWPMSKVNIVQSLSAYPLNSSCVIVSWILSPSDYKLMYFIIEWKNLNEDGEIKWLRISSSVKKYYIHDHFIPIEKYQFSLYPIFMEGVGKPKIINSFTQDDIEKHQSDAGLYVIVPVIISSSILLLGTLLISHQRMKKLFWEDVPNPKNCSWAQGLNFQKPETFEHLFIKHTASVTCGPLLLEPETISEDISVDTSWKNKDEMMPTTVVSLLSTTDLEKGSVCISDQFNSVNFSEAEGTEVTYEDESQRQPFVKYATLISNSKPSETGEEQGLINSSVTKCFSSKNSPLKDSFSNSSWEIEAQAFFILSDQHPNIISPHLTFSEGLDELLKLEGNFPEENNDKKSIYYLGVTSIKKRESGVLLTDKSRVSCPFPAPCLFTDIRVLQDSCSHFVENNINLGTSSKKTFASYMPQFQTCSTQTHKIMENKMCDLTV
Experiment: Immunoprecipitation and western blotting of tyrosine phosphorylation, leptin-stimulated COS cells expressing OB-R
Assay type: cell-based
Details: 100 ng/ml human leptin for 10 min
Experimental: The cytoplasmic domain and full-length human OB-R was cloned by PCR using human fetal liver and adipocyte cDNA (Clontech) and cloned into the expression vectors pCMX and pMT21. Chimeric receptors were constructed by fusing the extracellular domain and transmembrane domain of TrkC (amino acids 1 to 458) to the cytoplasmic domain of OB-R (amino acids 865-1165). A triple myc epitope tag was added at the C-terminus of all OB-R constructs (18). Truncation and point mutant constructs were generated by PCR and the sequences of all constructs were verified. Expression constructs were transfected into COS-7 cells using lipofectamine (GIBCO-BRL); 36-48 hours after transfection, cells were starved for either 2 hour,s for chimeric receptors or overnight for full-length receptors prior to stimulation.
Cells were stimulated with 50 ng/ml of human NT-3 for 15 min or 100 ng/ml of human leptin (R&D Systems) for 10 min. Cells were then lysed in a 1% Brij 96 buffer and receptor was immunoprecipitated with anti-myc antibody 9E10 (18) followed by protein G-sepharose (Pharmacia). Unbound lysate was then immunoprecipitated with anti-P-Tyr antibody (UBI, Lake Placid) or agarose-conjugated anti-SHP-2 antibody (Santa Cruz Biotechnology). […] Endogenous STAT3, SHP-2, Jak1 and Jak2 is being detected in all immunoblotting experiments. […]

Substance: leptin: the product of the obese gene, secreted by adipocytes; ligand of OB-R
- tyrosine phosphorylation of receptor, STAT3 and SHP-2: results in phosphorylation of the receptor, STAT3 and SHP-2
